Laboratory results from patent publication US20130142788A1 (published 2013).
Residue numbers refer to the chain shown, from its start. Names and notes keep the numbering of the source. Like-named read-outs stand apart in the source and are kept apart here. Each block holds one binder with its values, some of them ahead of it.

Tests used:
[1] = molecular target: T1, recombinant mature dimeric myostatin (human and mouse (mature sequences 100% …, UniProt O08689 268-376)); assay: ActRIIb neutralisation ELISA: inhibition of 2 nM biotinylated myostatin binding to coated ActRIIb
T1 construct: also called GDF-8; mature myostatin
T1 sequence: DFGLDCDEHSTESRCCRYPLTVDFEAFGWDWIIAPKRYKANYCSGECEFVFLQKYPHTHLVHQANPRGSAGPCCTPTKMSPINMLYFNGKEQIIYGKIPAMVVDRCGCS
Description: Recombinant soluble ActRIIb (R&D Systems 339-RBB) was coated in wells of an ELISA plate at 1 μg/ml in carbonate buffer overnight at 4° C. Plates were blocked with PBS containing 0.1% tween 20 and 0.1% BSA and washed following standard ELISA protocols. In parallel, 2 nM biotinylated myostatin (in-house reagent, described above) was pre-incubated with a dilution series of the antibodies of Tables 21 and 22 for 30 minutes at 37° C. The biotinylated myostatin:antibody reactions were then added (50 μl/well) to the ActRIIb coated plate for 1 hour at 37° C. Standard wash procedures were followed prior to addition of 50 μl per well of a 1:200 diluted streptavidin-HRP conjugate (R&D Systems. #890803) followed by a further 37° C. incubation for 1 hour. Plates were again washed and assayed at absorbance 490 nm following substrate (R&D Systems, #DY999) and acid stop solution treatment.

[2] = molecular target: T1, recombinant mature dimeric myostatin; assay: myostatin competition ELISA, polyclonal Ab capture of myostatin, competitor 10B3
Description: (§1) A 96-well ELISA plate was coated at 4° C. overnight with 2.5 μg/ml polyclonal Antibody to Myostatin (R&D Systems AF788). This plate was then washed 3-times in wash buffer (PBS, 0.1% Tween-20) and blocked for 1 hour at room temperature with block solution (PBS, 0.1% Tween-20+1% bovine serum albumin [BSA]). Then, myostatin was added at 1 μg/ml in block buffer during 1 hour followed by 3-times in wash buffer. Antibodies were then titrated out to a suitable concentration range (approximately 10 to 0.01 μg/ml), added to the plate and incubated for 1 hour at room temperature. The plate was then washed 3-times in wash buffer. An anti-human kappa light chain HRP-conjugated antibody (Sigma A7164, used according to the manufacturer's instructions) was used to detect binding of humanized or chimeric antibodies, such as 10B3 chimera (HcLc) or H0L0. The plate was then washed 3-times in wash buffer and developed with an OPD substrate (according to the manufacturer's instructions) and read at 490 nm on a plate reader.
The protocol set out in 5.7 was used with the addition of 10B3 (final concentration of […]) to each well and mixed with the antibodies titrated out to a suitable concentration range (approximately 10 to 0.01 μg/ml). An anti-mouse HRP-conjugated antibody (DAKO P0260, used according to the manufacturer's instructions) was used to detect binding of the 10B3 antibody.

[3] = molecular target: T1, recombinant mature dimeric myostatin; assay: cell-based or functional assay
[4] = molecular target: T1, recombinant mature dimeric myostatin; assay: Kinexa solution phase affinity
Description: Kinexa (Sapidyne Instruments) solution phase affinity was used to determine the overall affinity for a range of anti-myostatin molecules. Myostatin beads were prepared either by adsorption (polymethylmethacrylate beads-PMMA) or amine coupling (NHS-activated sepharose beads). The range of anti-myostatin molecules studied necessitated the generation of beads coated with different concentrations of myostatin. For the solution phase portion of the assay, a fixed concentration of antibody was incubated with a broad range of myostatin concentrations and allowed to reach equilibrium by incubation at r.t. for at least 2 h before analysis proceeded. The myostatin beads were then used to determine the amount of free antibody present in the solution phase samples, by means of the free antibody binding to the myostatin bead matrix then detected using an appropriate secondary antibody (either anti-human or anti-mouse depending on the construct being tested) labelled with a fluorescent dye. The binding curves where fitted using the Kinexa Pro analysis software inherent to the machine. Multiple runs using varying starting concentrations of antibody were then compiled and analysed using the n-curve analysis software to give a more accurate determination of affinity.

[5] = molecular target: T1, recombinant mature dimeric myostatin; assay: myostatin competition ELISA, direct capture of myostatin, competitor 10B3
Description: as §1
The protocol set out in 5.7 was used but the plates were initially coated at 4° C. overnight with 0.2 μg/ml of myostatin (recombinant in-house, see 1.1 above). 10B3 (final concentration of 0.3 μg/ml) was added into each well and mixed with antibodies titrated out to a suitable concentration range (approximately 10 to 0.01 μg/ml). An anti-mouse HRP-conjugated antibody (DAKO P0260, used according to the manufacturer's instructions) was used to detect binding of the 10B3 antibody.

[6] = molecular target: T1, recombinant mature dimeric myostatin; assay: cell-based or functional assay; remark: listed apart in the source
[7] = molecular target: T1, recombinant mature dimeric myostatin; assay: cell-based or functional assay; remark: listed apart in the source
[8] = molecular target: T1, recombinant mature dimeric myostatin; assay: myostatin competition ELISA, biotinylated myostatin on streptavidin, competitor 10B3
Description: The protocol set out in 5.7 was used but the plates were initially coated at 4° C. overnight with 5 μg/ml of streptavidin. Biotinylated myostatin was added at 0.3 μg/ml block buffer during 1 hour followed by 3-times in wash buffer. 10B3 (final concentration of 0.2 μg/ml) was added into each well and mixed with antibodies titrated out to a suitable concentration range (approximately 10 to 0.01 μg/ml). An anti-mouse HRP-conjugated antibody (DAKO P0260, used according to the manufacturer's instructions) was used to detect binding of the 10B3 antibody.

[9] = molecular target: T1, recombinant mature dimeric myostatin; assay: cell-based or functional assay; remark: listed apart in the source
Fc R 2a Arg polymorphism = molecular target: T2, Fc R 2a Arg polymorphism (UniProt P12318 34-217, limits assumed); assay: ProteOn XPR36 SPR, antibody immobilised, receptor 8-2048 nM, equilibrium model
T2 construct: also called FcγRIIa Arg
T2 sequence (looked up): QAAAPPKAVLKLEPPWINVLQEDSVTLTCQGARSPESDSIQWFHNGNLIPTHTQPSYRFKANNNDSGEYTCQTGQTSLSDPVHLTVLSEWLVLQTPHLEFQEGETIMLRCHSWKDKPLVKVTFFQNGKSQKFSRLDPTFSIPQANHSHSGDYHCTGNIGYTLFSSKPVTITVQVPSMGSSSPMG
Description: (§2) Binding analysis to Fc R5 and C1q was carried out using the ProteOn XPR36. The test antibodies (H8L5 and Fc-disabled H8L5) were immobilised on a GLC biosensor chip by primary amine coupling. The Fc Rs were used at 2048 nM, 512 nM, 128 nM, 32 nM and 8 nM, while C1q was used at 512 nM, 128 nM, 32 nM, 8 nM and 2 nM. A buffer injection (i.e. 0 nM) was used to double reference the binding sensorgrams. Due to the nature of the interaction (i.e. fast on/fast-off) regeneration was not required and the binding sensorgrams returned to baseline by use of a 20 min dissociation time and subsequent buffer injections. The data was fitted to the Equilibrium model inherent to the PrateOn's analysis software, using a global R-max for each receptor group and for C1q binding (i.e. Fc R 2aHis and Arg polymorphisms were analysed together and Fc R3aPhe and Val polymorphisms were analysed together, while C1q was analysed separately).

Fc R 2a His polymorphism = molecular target: T3, Fc R 2a His polymorphism (UniProt P12318 34-217, limits assumed); assay: as above
T3 construct: also called FcγRIIa His
T3 sequence (looked up): T2 sequence (looked up) with R134H
Description: as §2

Fc R3a Val polymorphism = molecular target: T4, Fc R3a Val polymorphism (UniProt P08637 17-208, limits assumed); assay: as above
T4 construct: also called FcγRIIIa Val
Description: as §2

Fc R3a Phe polymorphism = molecular target: T5, Fc R3a Phe polymorphism (UniProt P08637 17-208, limits assumed); assay: as above
T5 construct: also called FcγRIIIa Phe
Description: as §2

[10] = molecular target: T1, recombinant mature dimeric myostatin; assay: ActRIIb receptor binding assay: inhibition of biotinylated myostatin binding to coated ActRIIb
Description: Recombinant soluble ActRIIb (R&D Systems 339-RBB) was coated in wells of an ELISA plate at 1 μg/ml in carbonate buffer overnight at 4° C. Plates were blocked (see Block solution above at 2.3) and washed following standard ELISA protocols. In parallel, 2 nM biotinylated myostatin (in-house, as described in 1.1, biotinylated material) was pre-incubated with an antibody dilution series consisting of 10B3, 10B3C, and a negative control (IgG1 isotype control) for 2 hours at 37° C. The biotinylated myostatin:antibody reactions were then added to the ActRIIb coated plate for 1 hour at 37° C. Standard wash procedures were followed prior to addition of 1:1000 diluted streptavidin-HRP conjugate (Dako P0397) and a further 37° C. incubation for 1 hour. Plates were again washed and assayed at absorbance 490 nm following OPD substrate (Sigma) and acid stop solution treatment. Inhibition curves and IC50 values for the inhibition of myostatin activity are shown in FIG. 5 and Table 8 respectively.

T4 sequence (P08637 17-208 F176V limits assumed): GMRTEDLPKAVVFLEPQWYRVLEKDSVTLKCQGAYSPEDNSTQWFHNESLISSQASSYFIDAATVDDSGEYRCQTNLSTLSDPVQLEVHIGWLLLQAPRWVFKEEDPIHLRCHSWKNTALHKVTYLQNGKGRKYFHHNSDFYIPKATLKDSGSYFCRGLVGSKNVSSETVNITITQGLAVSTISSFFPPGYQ
T5 sequence (P08637 17-208 limits assumed): as the sequence (P08637 17-208 F176V limits assumed) above, with V160F counted along it

B1: H2L2-C91S_F100G_Y (antibody, IgG1)
heavy: not shown
light: DIQMTQSPSSLSASVGDRVTITCKASQDINSYLSWFQQKPGKAPKSLIYRANRLVDGVPSKFSGSGSGTDYTLTISSLQPEDFATYYCLQSDEFPLTFGQGTKLEIKRTVAAPSVFIFPPSDEQLKSGTASVVCLLNNFYPREAKVQWKVDNALQSGNSQESVTEQDSKDSTYSLSSTLTLSKADYEKHKVYACEVTHQGLSSPVTKSFNRGEC
notes: wild type IgG1 Fc
IC50 [1]: 1.25 nM | rank among the five most potent, top (1) to bottom (5) [2]: 4 rank | Mean IC50, A204 in vitro activity assay [3]: 11.1 nM | Kd [4]: 3.68 nM | rank among the five most potent, top (1) to bottom (5) [5]: 2 rank | Mean IC50, A204 in vitro activity assay [6]: 3.64 nM | IC50, myostatin responsive reporter gene neutralisation assay (A204) [7]: 23 nM | rank among the five most potent, top (1) to bottom (5) [8]: 2 rank

B4: H2L2-C91S (antibody, IgG1, V domains shown)
VH: QVQLVQSGAEVKKPGASVKVSCKASGYSFTGYFMHWVRQAPGQGLEWMGNIYPYNGVSNYNQRFKARVTMTTDTSTSTAYMELRSLRSDDTAVYYCARRYYYGTGPADWYFDVWGQGTLVTVSS
VL: DIQMTQSPSSLSASVGDRVTITCKASQDINSYLSWFQQKPGKAPKSLIYRANRLVDGVPSKFSGSGSGTDYTLTISSLQPEDFATYYCLQSDEFPLTFGQGTKLEIKR
Mean IC50, A204 in vitro activity assay [9]: 4.08 nM | Mean IC50, A204 in vitro activity assay [6]: 5.14 nM

B5: H2L2 C91S_G55S F100G_Y (antibody)
heavy: not shown
light: B1 light
notes: Fc not disabled
IC50 [10]: 0.786 nM | Mean IC50, A204 in vitro activity assay [3]: 4.42 nM

B6: H2L2 C91S_G55S_F100G_Y-Fc disabled (antibody)
heavy: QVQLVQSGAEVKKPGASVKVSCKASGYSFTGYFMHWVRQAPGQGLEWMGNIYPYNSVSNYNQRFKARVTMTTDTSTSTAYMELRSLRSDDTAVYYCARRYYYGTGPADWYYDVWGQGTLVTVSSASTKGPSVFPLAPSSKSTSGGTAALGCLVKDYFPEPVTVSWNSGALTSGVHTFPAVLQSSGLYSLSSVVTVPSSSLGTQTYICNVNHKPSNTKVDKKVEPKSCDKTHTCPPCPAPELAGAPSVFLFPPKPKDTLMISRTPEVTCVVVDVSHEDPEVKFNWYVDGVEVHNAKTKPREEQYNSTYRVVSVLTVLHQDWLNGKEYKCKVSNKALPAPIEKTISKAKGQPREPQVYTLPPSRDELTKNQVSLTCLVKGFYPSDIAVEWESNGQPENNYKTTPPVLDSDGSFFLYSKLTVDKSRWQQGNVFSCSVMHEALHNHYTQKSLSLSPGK
light: B1 light
notes: Fc disabled (L235A, G237A, EU); Light chain L2-C91S by the name; not restated for the disabled form
IC50 [10]: 0.518 nM

Next, values leading:

Mean IC50, A204 in vitro activity assay [9]: 1.24 nM
B2: H2L2-C91S_F100G_Y Fc Disabled (antibody, human IgG1, kappa)
heavy: QVQLVQSGAEVKKPGASVKVSCKASGYSFTGYFMHWVRQAPGQGLEWMGNIYPYNGVSNYNQRFKARVTMTTDTSTSTAYMELRSLRSDDTAVYYCARRYYYGTGPADWYYDVWGQGTLVTVSSASTKGPSVFPLAPSSKSTSGGTAALGCLVKDYFPEPVTVSWNSGALTSGVHTFPAVLQSSGSLSSVVTVPSSSLGTQTYICNVNHKPSNTKVDKKVEPKSCDKTHTCPPCPAPELAGAPSVFLFPPKPKDTLMISRTPEVTCVVVDVSHEDPEVKFNWYVDGVEVHNAKTKPREEQYNSYVVSVLTVLHQDWLNGKEYKCKVSNKALPAPIEKTISKAKGQPREPQVYTLPPSRDELTKNQVSLTCLVKGFYPSDIAVEWESNGQPENNYKTTPPVLDSDGSFFKKLTVDKSRWQQGNVFSCSVMHEALHNHYTQKSLSLSPGK
light: B1 light

binding result (Fc R 2a Arg polymorphism): binds | binding result (Fc R 2a His polymorphism): binds | binding result (Fc R3a Val polymorphism): binds | binding result (Fc R3a Phe polymorphism): binds
B3: Fc-disabled H8L5 (antibody, IgG1)
heavy: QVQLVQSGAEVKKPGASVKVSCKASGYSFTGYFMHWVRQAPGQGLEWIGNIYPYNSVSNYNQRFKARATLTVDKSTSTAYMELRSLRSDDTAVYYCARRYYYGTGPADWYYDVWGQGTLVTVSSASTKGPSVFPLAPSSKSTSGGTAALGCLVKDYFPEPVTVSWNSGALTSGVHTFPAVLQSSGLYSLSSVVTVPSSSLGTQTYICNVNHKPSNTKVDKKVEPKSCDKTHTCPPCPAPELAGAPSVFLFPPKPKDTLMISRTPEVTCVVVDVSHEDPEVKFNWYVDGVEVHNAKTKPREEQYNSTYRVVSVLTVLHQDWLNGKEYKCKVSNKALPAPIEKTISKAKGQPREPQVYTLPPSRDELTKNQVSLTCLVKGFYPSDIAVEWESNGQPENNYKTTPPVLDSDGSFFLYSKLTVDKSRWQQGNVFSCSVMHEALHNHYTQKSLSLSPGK
light: B1 light with S46T
notes: hIgG1 Fc disabled (L235A, G237A, EU numbering); also called H8L5 disabled; H8disabledL5; copies: 2 + 2
